Source: patent US20230265146A1 (AMUNIX PHARMACEUTICALS, published 2023)

Target: T1, human IL-12 receptor on HEK-Blue IL-12 reporter cells (human, UniProt P42701 24-662; Q99665 24-862)
T1 construct: whole, on cells; also called 293 HEK-IL-12 reporter cells; HEK-Blue IL12 reporter cells (InvivoGen)
Assay: Flow cytometry (MFI AF488) on HEK-Blue IL-12 reporter cells; bound protein detected with a fluorescent anti-His-tag antibody
Method: HEK-Blue IL-12 reporter cells (Invivogen, as described in Example 8) that express the human IL-12 receptor were used to assess binding of the IL12 constructs to the IL-12 receptor. Increasing concentrations of an exemplified “XTENylated IL12” construct (SEQ ID NO: 2) (1 μM) containing a recombinant single chain mouse IL12 with an N-terminal his-tag plus an XTEN sequence followed by a release segment sequence were incubated with 50,000 293HEK-IL-12 reporter cells that were subsequently washed and surface bound IL12 monitored by flow cytometry using a fluorescent-labelled anti-His-tag antibody for detection. Binding by the XTENylated IL12 was compared to binding of the reference IL-12 construct (SEQ ID NO:4) that contained a recombinant single chain mouse IL-12 and a C-terminal His-tag. Due to release of the His-tag from the XTENylated IL-12 following its activation with human matrix metallopeptidase 9 (MMP9), we were unable to assess IL-12 binding of its activated form in this assay. The XTEN fragment released by MMP9 cleavage retained the His-tag and was used as a specificity control for binding. As shown in FIGS. 9A-9B, the XTEN, when present in the fusion protein masked the cytokine binding to its corresponding IL12 receptor.

T1 sequence (Q99665 24-862, chain 2 of 2, other chains not shown): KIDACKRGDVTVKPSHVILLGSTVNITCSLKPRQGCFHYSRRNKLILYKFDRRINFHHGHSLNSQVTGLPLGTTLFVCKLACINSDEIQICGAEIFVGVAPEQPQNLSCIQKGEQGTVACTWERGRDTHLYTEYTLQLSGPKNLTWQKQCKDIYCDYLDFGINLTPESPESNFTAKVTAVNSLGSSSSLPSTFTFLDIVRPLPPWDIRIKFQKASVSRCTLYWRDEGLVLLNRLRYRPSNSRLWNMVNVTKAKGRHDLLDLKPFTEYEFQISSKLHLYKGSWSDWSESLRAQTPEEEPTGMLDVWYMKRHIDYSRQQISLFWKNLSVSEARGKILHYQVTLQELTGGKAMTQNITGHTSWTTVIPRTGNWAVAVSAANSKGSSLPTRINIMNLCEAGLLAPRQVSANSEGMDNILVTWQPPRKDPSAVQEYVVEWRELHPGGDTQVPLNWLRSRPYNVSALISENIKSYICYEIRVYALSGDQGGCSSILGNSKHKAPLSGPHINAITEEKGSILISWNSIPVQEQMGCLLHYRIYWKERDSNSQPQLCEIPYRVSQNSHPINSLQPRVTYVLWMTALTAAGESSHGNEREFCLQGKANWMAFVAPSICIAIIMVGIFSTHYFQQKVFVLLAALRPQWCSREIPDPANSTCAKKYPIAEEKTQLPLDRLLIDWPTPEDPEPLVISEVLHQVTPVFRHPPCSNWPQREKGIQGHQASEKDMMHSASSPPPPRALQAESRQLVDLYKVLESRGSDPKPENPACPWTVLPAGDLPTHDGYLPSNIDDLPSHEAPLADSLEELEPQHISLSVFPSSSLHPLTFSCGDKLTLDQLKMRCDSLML

B1: Reference IL12 construct (SEQ ID NO: 4) (ligand)
chain: MWELEKDVYVVEVDWTPDAPGETVNLTCDTPEEDDITWTSDQRHGVIGSGKTLTITVKEFLDAGQYTCHKGGETLSHSHLLLHKKENGIWSTEILKNFKNKTFLKCEAPNYSGRFTCSWLVQRNMDLKFNIKSSSSSPDSRAVTCGMASLSAEKVTLDQRDYEKYSVSCQEDVTCPTAEETLPIELALEARQQNKYENYSTSFFIRDIIKPDPPKNLQMKPLKNSQVEVSWEYPDSWSTPHSYFSLKFFVRIQRKKEKMKETEEGCNQKGAFLVEKTSTEVQCKGGNVCVQAQDRYYNSSCSKWACVPCRVRSGGGGSGGGGSGGGGSRVIPVSGPARCLSQSRNLLKTTDDMVKTAREKLKHYSCTAEDIDHEDITRDQTSTLKTCLPLELHKNESCLATRETSSTTRGSCLPPQKTSLMMTLCLGSIYEDLKMYQTEFQAINAALQNHNHQQIILDKGMLVAIDELMQSLNHNGETLRQKPPVGEADPYRVKMKLCILLHAFSTRVVTINRVMGYLSSAHHHHHHHH
- EC50: 4.5 nM
